Reference: patent US20100129369A1

Experiments:
[1] = molecular target: human c-Met (human) (UniProt P08581); assay: cell-based or functional assay
[2] = molecular target: human c-Met ECD-Fc-Flis (human); assay: HGF-blocking ELISA: HGF signal on coated c-Met ECD-Fc-Flis; Ab 0.48 ng/mL
[3] = molecular target: human c-Met ECD-Fc-Flis (human); assay: HGF-blocking ELISA: HGF signal on coated c-Met ECD-Fc-Flis; Ab 1.91 ng/mL
[4] = molecular target: human c-Met ECD-Fc-Flis (human); assay: HGF-blocking ELISA: HGF signal on coated c-Met ECD-Fc-Flis; Ab 7.63 ng/mL
[5] = molecular target: human c-Met ECD-Fc-Flis (human); assay: HGF-blocking ELISA: HGF signal on coated c-Met ECD-Fc-Flis; Ab 30.52 ng/mL
[6] = molecular target: human c-Met ECD-Fc-Flis (human); assay: HGF-blocking ELISA: HGF signal on coated c-Met ECD-Fc-Flis; Ab 122.07 ng/mL
[7] = molecular target: human c-Met ECD-Fc-Flis (human); assay: HGF-blocking ELISA: HGF signal on coated c-Met ECD-Fc-Flis; Ab 488.28 ng/mL
[8] = molecular target: human c-Met ECD-Fc-Flis (human); assay: HGF-blocking ELISA: HGF signal on coated c-Met ECD-Fc-Flis; Ab 1953.13 ng/mL
[9] = molecular target: human c-Met ECD-Fc-Flis (human); assay: HGF-blocking ELISA: HGF signal on coated c-Met ECD-Fc-Flis; Ab 7812.50 ng/mL
[10] = molecular target: human c-Met ECD-Fc-Flis (human); assay: HGF-blocking ELISA: HGF signal on coated c-Met ECD-Fc-Flis; Ab 31250.00 ng/mL
[11] = molecular target: human c-Met ECD-Fc-Flis (human); assay: HGF-blocking ELISA: HGF signal on coated c-Met ECD-Fc-Flis; Ab 125000.00 ng/mL
[12] = molecular target: human c-Met ECD-Fc-Flis (human); assay: HGF-blocking ELISA: HGF signal on coated c-Met ECD-Fc-Flis; Ab 0.00 ng/mL (HGF only)

Sequence of human c-Met (human) (P08581 25-1390): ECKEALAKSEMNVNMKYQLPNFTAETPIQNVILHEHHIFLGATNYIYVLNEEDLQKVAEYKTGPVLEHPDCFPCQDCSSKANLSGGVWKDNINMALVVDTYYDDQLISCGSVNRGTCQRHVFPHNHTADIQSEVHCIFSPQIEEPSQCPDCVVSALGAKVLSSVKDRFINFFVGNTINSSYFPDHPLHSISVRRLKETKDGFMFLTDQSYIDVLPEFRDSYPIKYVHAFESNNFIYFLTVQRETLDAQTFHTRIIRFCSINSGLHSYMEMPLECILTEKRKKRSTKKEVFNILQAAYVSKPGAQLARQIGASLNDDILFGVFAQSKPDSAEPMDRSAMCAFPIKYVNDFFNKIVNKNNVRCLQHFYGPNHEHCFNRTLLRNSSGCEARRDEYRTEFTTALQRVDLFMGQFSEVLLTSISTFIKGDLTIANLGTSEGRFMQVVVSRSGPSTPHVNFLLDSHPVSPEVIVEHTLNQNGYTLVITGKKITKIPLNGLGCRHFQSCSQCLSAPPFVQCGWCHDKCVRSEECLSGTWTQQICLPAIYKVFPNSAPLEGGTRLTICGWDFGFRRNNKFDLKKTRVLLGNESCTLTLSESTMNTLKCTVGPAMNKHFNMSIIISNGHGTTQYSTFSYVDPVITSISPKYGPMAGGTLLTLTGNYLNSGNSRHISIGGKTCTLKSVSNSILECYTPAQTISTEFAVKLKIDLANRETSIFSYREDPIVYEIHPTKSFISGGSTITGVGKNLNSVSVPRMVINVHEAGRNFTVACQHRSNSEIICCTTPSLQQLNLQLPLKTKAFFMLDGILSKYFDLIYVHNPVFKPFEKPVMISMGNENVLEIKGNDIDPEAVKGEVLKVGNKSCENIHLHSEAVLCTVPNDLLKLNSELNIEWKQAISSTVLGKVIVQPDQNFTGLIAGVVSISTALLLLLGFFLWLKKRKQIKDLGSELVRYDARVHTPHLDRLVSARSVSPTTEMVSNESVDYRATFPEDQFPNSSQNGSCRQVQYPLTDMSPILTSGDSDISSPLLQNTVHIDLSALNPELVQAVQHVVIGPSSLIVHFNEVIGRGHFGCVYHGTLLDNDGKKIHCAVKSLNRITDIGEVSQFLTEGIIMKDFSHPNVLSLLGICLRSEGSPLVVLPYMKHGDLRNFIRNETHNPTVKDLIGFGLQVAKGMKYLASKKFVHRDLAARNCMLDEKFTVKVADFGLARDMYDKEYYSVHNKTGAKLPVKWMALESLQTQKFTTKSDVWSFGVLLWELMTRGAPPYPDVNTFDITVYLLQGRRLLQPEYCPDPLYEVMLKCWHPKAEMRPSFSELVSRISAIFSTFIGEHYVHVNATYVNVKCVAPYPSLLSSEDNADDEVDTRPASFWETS
Sequence of human c-Met ECD-Fc-Flis (human) (chain, as listed by the source): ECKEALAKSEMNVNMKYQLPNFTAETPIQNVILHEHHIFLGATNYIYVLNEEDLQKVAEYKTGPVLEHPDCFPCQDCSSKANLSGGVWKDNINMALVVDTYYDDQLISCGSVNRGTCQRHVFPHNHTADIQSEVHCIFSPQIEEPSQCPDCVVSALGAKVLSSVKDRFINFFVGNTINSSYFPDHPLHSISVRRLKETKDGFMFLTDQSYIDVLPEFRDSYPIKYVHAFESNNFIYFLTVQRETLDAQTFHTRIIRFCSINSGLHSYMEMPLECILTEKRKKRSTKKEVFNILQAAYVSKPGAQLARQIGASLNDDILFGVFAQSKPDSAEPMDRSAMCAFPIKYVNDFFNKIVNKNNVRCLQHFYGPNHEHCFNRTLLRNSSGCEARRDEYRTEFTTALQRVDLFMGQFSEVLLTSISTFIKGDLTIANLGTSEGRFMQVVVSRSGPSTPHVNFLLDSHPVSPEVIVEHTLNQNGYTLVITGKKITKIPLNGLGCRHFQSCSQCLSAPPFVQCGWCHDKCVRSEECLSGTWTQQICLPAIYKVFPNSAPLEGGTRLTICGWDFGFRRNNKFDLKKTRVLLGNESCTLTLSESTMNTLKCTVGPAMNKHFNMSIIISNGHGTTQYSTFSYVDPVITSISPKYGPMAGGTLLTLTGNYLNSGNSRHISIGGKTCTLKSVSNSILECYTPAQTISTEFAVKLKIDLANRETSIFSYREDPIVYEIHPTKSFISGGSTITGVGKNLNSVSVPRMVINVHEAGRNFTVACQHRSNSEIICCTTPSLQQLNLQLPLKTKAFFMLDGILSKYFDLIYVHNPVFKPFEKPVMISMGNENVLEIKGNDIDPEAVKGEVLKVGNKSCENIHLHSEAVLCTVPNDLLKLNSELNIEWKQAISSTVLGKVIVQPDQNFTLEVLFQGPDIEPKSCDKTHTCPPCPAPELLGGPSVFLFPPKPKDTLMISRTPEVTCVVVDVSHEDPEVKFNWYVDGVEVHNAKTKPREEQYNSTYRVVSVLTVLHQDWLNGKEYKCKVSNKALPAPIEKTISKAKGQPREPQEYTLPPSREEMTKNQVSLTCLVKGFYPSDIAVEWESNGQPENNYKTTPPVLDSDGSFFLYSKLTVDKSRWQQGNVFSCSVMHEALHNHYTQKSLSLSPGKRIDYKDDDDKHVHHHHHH
Sequence of human hepatocyte growth factor (HGF) (P14210 32-728 limits assumed): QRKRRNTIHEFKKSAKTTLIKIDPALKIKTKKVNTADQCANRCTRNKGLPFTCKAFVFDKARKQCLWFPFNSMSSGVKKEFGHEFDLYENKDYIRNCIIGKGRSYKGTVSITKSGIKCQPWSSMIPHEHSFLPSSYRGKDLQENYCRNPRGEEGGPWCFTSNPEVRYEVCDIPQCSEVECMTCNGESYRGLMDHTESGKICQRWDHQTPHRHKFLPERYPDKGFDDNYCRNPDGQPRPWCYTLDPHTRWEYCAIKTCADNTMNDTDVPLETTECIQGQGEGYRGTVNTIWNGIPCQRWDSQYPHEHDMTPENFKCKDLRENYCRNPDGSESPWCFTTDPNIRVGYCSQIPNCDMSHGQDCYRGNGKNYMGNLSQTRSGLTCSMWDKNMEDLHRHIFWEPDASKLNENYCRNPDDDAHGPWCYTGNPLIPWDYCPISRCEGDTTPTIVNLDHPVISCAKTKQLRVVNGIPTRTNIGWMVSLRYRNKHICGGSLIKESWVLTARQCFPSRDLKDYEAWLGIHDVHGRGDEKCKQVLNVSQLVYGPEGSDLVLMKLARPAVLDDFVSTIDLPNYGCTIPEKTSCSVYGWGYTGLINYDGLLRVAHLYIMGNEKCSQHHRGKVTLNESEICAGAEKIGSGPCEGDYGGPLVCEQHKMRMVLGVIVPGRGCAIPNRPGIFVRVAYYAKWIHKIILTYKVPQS

Row | Substance | % inhibition of HGF stimulated phospho-Met (ELISA, HCT116 cells), Ab 0.0032 µg/mL [1] [%] | % inhibition of HGF stimulated phospho-Met (ELISA, HCT116 cells), Ab 0.016 µg/mL [1] [%] | % inhibition of HGF stimulated phospho-Met (ELISA, HCT116 cells), Ab 0.08 µg/mL [1] [%] | % inhibition of HGF stimulated phospho-Met (ELISA, HCT116 cells), Ab 0.4 µg/mL [1] [%] | % inhibition of HGF stimulated phospho-Met (ELISA, HCT116 cells), Ab 2 µg/mL [1] [%] | % inhibition of HGF stimulated phospho-Met (ELISA, HCT116 cells), Ab 10 µg/mL [1] [%] | AVG CPM, 3H-thymidine incorporation in MKN45 cells, Ab 0.0 ng/mL (no antibody) [1] [CPM] | AVG CPM, 3H-thymidine incorporation in MKN45 cells, Ab 0.1 ng/mL [1] [CPM] | AVG CPM, 3H-thymidine incorporation in MKN45 cells, Ab 0.4 ng/mL [1] [CPM] | AVG CPM, 3H-thymidine incorporation in MKN45 cells, Ab 2.6 ng/mL [1] [CPM] | AVG CPM, 3H-thymidine incorporation in MKN45 cells, Ab 15.4 ng/mL [1] [CPM] | AVG CPM, 3H-thymidine incorporation in MKN45 cells, Ab 92.6 ng/mL [1] [CPM] | AVG CPM, 3H-thymidine incorporation in MKN45 cells, Ab 555.6 ng/mL [1] [CPM] | AVG CPM, 3H-thymidine incorporation in MKN45 cells, Ab 3333.3 ng/mL [1] [CPM] | AVG CPM, 3H-thymidine incorporation in MKN45 cells, Ab 20000.0 ng/mL [1] [CPM] | Mean Fluorescence (c-Met left on the surface of MKN45 cells, FACS), Ab 5.00 ug/mL [1] | AVG A450 nm [2] [A450 nm] | AVG A450 nm [3] [A450 nm] | AVG A450 nm [4] [A450 nm] | AVG A450 nm [5] [A450 nm] | further results
1 | Murine IgG1 c-Met antibody 5D5 | -6.07 | -3.5 | 11.9 | 42.5 | 63.8 | 64.1 | 50300 | 51900 | 49600 | 55000 | 49800 | 39600 | 39500 | 38200 | 35100 | 92.9 |  |  |  |  | 3H-Thymidine Incorporation in Caki-1 Cells in the Absence of HGF (AVG CPM), antibody dose 0.1 ng/mL [1]: 14400 CPM; 3H-Thymidine Incorporation in Caki-1 Cells in the Absence of HGF (AVG CPM), antibody dose 0.4 ng/mL [1]: 12900 CPM; 3H-Thymidine Incorporation in Caki-1 Cells in the Absence of HGF (AVG CPM), antibody dose 2.6 ng/mL [1]: 12500 CPM; 3H-Thymidine Incorporation in Caki-1 Cells in the Absence of HGF (AVG CPM), antibody dose 15.4 ng/mL [1]: 11700 CPM; 3H-Thymidine Incorporation in Caki-1 Cells in the Absence of HGF (AVG CPM), antibody dose 92.6 ng/mL [1]: 15600 CPM; 3H-Thymidine Incorporation in Caki-1 Cells in the Absence of HGF (AVG CPM), antibody dose 555.6 ng/mL [1]: 20000 CPM; 3H-Thymidine Incorporation in Caki-1 Cells in the Absence of HGF (AVG CPM), antibody dose 3333.3 ng/mL [1]: 19000 CPM; 3H-Thymidine Incorporation in Caki-1 Cells in the Absence of HGF (AVG CPM), antibody dose 20000.0 ng/mL [1]: 19900 CPM; 3H-Thymidine Incorporation in Primary Human Hepatocytes in the Absence of HGF (average), dose 0.0032 ug/mL [1]: 822; 3H-Thymidine Incorporation in Primary Human Hepatocytes in the Absence of HGF (average), dose 0.016 ug/mL [1]: 1720; 3H-Thymidine Incorporation in Primary Human Hepatocytes in the Absence of HGF (average), dose 0.08 ug/mL [1]: 3320; 3H-Thymidine Incorporation in Primary Human Hepatocytes in the Absence of HGF (average), dose 0.4 ug/mL [1]: 3760; 3H-Thymidine Incorporation in Primary Human Hepatocytes in the Absence of HGF (average), dose 2 ug/mL [1]: 4910; 3H-Thymidine Incorporation in Primary Human Hepatocytes in the Absence of HGF (average), dose 10 ug/mL [1]: 4980; H441 Scratch Assay, Avg. %, antibody 10 ug/mL [1]: 244%; HepG2 Cell Invasiveness, Average Cell Number Per 2.5x Field, antibody 10.00 ug/mL (cells per 2.5x field) [1]: 85; Percent of DU145 Cells in Colonies (scatter assay), antibody 20 ug/mL [1]: 14.4%; Tube Formation in ECFC Cells, Total Tube Area (Avg.), antibody 10 ug/mL [1]: 147000; Tubular Morphogenesis Agonist activity (fold stimulation) in HepG2 cells, antibody 50 ug/ml (fold stimulation) [1]: 4.9; p-Met signal (pY1349 ELISA, A549 cells), Ab Conc. 5 (ng/mL as printed) [1]: 3.29
2 | humanized IgG2 isotype control antibody | -10.2 | 9.49 | -1.58 | 9.31 | 17.5 | 6.24 | 50400 | 44800 | 46500 | 48500 | 50500 | 47600 | 51700 | 49400 | 45100 | 130 | 2.46 | 2.87 | 2.7 | 2.41 | AVG A450 nm [6]: 2.52 A450 nm; AVG A450 nm [7]: 2.53 A450 nm; AVG A450 nm [8]: 2.43 A450 nm; AVG A450 nm [9]: 2.5 A450 nm; AVG A450 nm [10]: 2.5 A450 nm; AVG A450 nm [11]: 2.43 A450 nm; AVG A450 nm [12]: 2.43 A450 nm
3 | murine IgG isotype control antibody | -9.76 | -5.42 | -10.6 | 13.4 | 9.76 | 5.46 | 50300 | 47700 | 51500 | 55500 | 51300 | 52200 | 54700 | 53700 | 52400 | 136 |  |  |  |  | 
4 | humanized IgG4 isotype control antibody | -14.4 | -7.96 | -21.7 | -16.1 | -6.62 | -1.47 | 48700 | 53900 | 55300 | 54800 | 53800 | 54300 | 54200 | 54000 | 50600 | 135 | 2.41 | 2.49 | 2.88 | 2.63 | p-Met signal (pY1349 ELISA, A549 cells), Ab 0.002 µg/mL [1]: 0.117; p-Met signal (pY1349 ELISA, A549 cells), Ab 0.005 µg/mL [1]: 0.074; p-Met signal (pY1349 ELISA, A549 cells), Ab 0.014 µg/mL [1]: 0.074; p-Met signal (pY1349 ELISA, A549 cells), Ab 0.041 µg/mL [1]: 0.268; p-Met signal (pY1349 ELISA, A549 cells), Ab 0.123 µg/mL [1]: 0.067; p-Met signal (pY1349 ELISA, A549 cells), Ab 0.370 µg/mL [1]: 0.082; p-Met signal (pY1349 ELISA, A549 cells), Ab 1.113 µg/mL [1]: 0.087; p-Met signal (pY1349 ELISA, A549 cells), Ab 3.333 µg/mL [1]: 0.068; p-Met signal (pY1349 ELISA, A549 cells), Ab 10 µg/mL [1]: 0.077; p-Met signal (pY1349 ELISA, A549 cells), Ab 30 µg/mL [1]: 0.061; AVG A450 nm [6]: 2.44 A450 nm; AVG A450 nm [7]: 2.44 A450 nm; AVG A450 nm [8]: 2.27 A450 nm; AVG A450 nm [9]: 2.49 A450 nm; AVG A450 nm [10]: 2.67 A450 nm; AVG A450 nm [11]: 3 A450 nm; AVG A450 nm [12]: 2.61 A450 nm
5 | human hepatocyte growth factor (HGF) (from UniProt P14210 32-728) (ligand) |  |  |  |  |  |  |  |  |  |  |  |  |  |  |  |  |  |  |  |  | 3H-Thymidine Incorporation in Primary Human Hepatocytes (ave), HGF 200 ng/mL [1]: 6290; H441 Scratch Assay, Avg. %, HGF 200 ng/mL [1]: 364%; HepG2 Cell Invasiveness, Average Cell Number Per 2.5x Field, HGF 50 ng/mL (cells per 2.5x field) [1]: 510; Percent of DU145 Cells in Colonies (scatter assay), HGF 20 ng/mL [1]: 8.15%; Staurosporine-Induced Apoptosis in Caki-1 Cells, Average A450 nm, HGF 0.02 ng/mL [1]: 0.97 A450 nm; Staurosporine-Induced Apoptosis in Caki-1 Cells, Average A450 nm, HGF 0.23 ng/mL [1]: 0.93 A450 nm; Staurosporine-Induced Apoptosis in Caki-1 Cells, Average A450 nm, HGF 2.25 ng/mL [1]: 0.73 A450 nm; Staurosporine-Induced Apoptosis in Caki-1 Cells, Average A450 nm, HGF 22.5 ng/mL [1]: 0.58 A450 nm; Staurosporine-Induced Apoptosis in Caki-1 Cells, Average A450 nm, HGF 225 ng/mL [1]: 0.45 A450 nm; Tube Formation in ECFC Cells, Total Tube Area (Avg.), HGF 100 ng/mL [1]: 212000; Tubular Morphogenesis Agonist activity (fold stimulation) in HepG2 cells, HGF 50 ng/ml (fold stimulation) [1]: 5.4
